We go through one molecule from publication PMC10247153, “Chromatin Sensing by the Auxiliary Domains of KDM5C Regulates Its Demethylase Activity and Is Disrupted by X-linked Intellectual Disability Mutations”.

For this data set, the target named is T1, KDM5C ARID (Homo sapiens, UniProt P41229 73-188).
T1 sequence: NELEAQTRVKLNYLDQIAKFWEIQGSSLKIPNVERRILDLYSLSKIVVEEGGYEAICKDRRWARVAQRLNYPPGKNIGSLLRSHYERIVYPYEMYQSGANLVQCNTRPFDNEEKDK
Kind of data set: EMSA; apparent Kd; EMSA: 50 mM HEPES pH 7.5, 50 mM KCl, 1 mM BME, 0.01% Tween-20, 0.01% BSA, 5% sucrose, 1 h on ice; 100 nM nucleosome or 147 bp DNA, 500 nM 20 bp DNA; gel at 4 C. To be noted: protein: recombinant; tags: 6xHis-SUMO cleaved.

B1: 5' flanking (linker) DNA 20 bp (dsDNA)
DNA 1: GGACCCTATACGCGGCCGCC
DNA 2: GGCGGCCGCGTATAGGGTCC
Turning to B1, the Kd worked out at 9.9 ± 0.4 µM.
